Reference: patent publication US20210179728A1
Several values for one entry are separate records, joined by “and”; a condition that tells them apart may be missing. Identical values can stand only once. Each block holds one substance with its values, some of them ahead of it.

Columns and labels:
[1] = target: SIRPg on human CD3+ T cells (human) (UniProt Q9P1W8); test: flow cytometry on peripheral human CD3+ T cells; Exp 1 HV2 [B, table B]
[2] = target: SIRPg on human CD3+ T cells (human) (UniProt Q9P1W8); test: flow cytometry on peripheral human CD3+ T cells; Exp 1 HV1 [B, table B]
[3] = target: SIRPa on human monocytes (human) (UniProt P78324); test: flow cytometry on human monocytes v1/v1, PE anti-human Fc; percent of stained monocytes [B, panel A table]
[4] = target: SIRPa on human monocytes (human) (UniProt P78324); test: flow cytometry on human monocytes v1/v1, PE anti-human Fc; MFI [B, panel B table]
[5] = target: recombinant hSIRPa (Sino Biologicals, reference 10975-H08H) (human) (UniProt P78324); test: ELISA on immobilized recombinant hSIRPa, anti-mouse Fc detection; given as ED50
[6] = target: recombinant hSIRPa (Sino Biologicals, reference 11612-H08H) (human) (UniProt P78324); test: SPR (Biacore); SIRPa-His immobilized on CM5 chip, antibody injected
[7] = target: CD47 on human T cells, red blood cells and platelets (human) (UniProt Q08722); test: flow cytometry on peripheral human CD3+ T cells; Exp 1 HV2 [B, table B]
[8] = target: CD47 on human T cells, red blood cells and platelets (human) (UniProt Q08722); test: flow cytometry on peripheral human CD3+ T cells; Exp 1 HV1 [B, table B]

Chain of SIRPg on human CD3+ T cells (human) (Q9P1W8 29-387): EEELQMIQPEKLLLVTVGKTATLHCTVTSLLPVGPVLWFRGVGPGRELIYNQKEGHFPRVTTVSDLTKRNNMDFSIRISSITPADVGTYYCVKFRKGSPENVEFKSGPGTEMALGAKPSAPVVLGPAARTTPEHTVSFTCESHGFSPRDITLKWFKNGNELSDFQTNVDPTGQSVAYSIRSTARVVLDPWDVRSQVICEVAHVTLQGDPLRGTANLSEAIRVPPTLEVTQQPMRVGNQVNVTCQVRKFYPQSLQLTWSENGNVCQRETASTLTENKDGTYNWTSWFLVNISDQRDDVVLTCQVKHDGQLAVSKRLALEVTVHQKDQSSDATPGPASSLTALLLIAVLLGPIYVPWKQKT

Substance: Ctrl Ab II (antibody)
% of positive T-cells [1]: 1.12%
% of positive T-cells [2]: 0.45%

Substance: Kwar23 (antibody)
EC50 [3]: 0.26 µg/mL
EC50 [4]: 0.378 µg/mL

Substance: LSB2.20 (antibody)
% of positive T-cells [1]: 98.4%
% of positive T-cells [2]: 91.4%

Substance: Mouse isotype Ctrl (antibody)
% of positive T-cells [1]: 0.016%

Substance: SE7C2 (antibody)
Kd [6]: 1670 nM
koff [6]: 0.01 s⁻¹
kon [6]: 5980 M⁻¹ s⁻¹

Further lines, results first:

EC50 [5]: 0.16 nM and 0.024 µg/mL
Kd [6]: 38.7 nM
koff [6]: 0.000949 s⁻¹
kon [6]: 24500 M⁻¹ s⁻¹
% of positive T-cells [1]: 7.69%
% of positive T-cells [2]: 3.72%
Substance: SE5A5 (antibody)

% of positive T-cells [7]: 80.1%
% of positive T-cells [8]: 72.2%
Substance: SIRPa-fc (Fc fusion)
